These results are taken from publication PMC6999842 (mAbs, 2020).

The target of experiment [1] is A33 in human colon and human colon adenocarcinoma tissue sections (Homo sapiens (Human)., UniProt Q99795). In words: immunostaining of cells or tissue.
For experiment [2], the target named is T1, human A33 transmembrane glycoprotein expressed on stably transfected murine colorectal carcinoma cells (Homo sapiens (Human)., UniProt Q99795). The experiment in a line: flow cytometry on cells. In general terms: A flow cytometer gives signals particle by particle.
Experiment [3] has as its target T1, human A33 transmembrane glycoprotein …. The experiment in a line: immunostaining of cells or tissue.

T1 sequence (Q99795 22-319): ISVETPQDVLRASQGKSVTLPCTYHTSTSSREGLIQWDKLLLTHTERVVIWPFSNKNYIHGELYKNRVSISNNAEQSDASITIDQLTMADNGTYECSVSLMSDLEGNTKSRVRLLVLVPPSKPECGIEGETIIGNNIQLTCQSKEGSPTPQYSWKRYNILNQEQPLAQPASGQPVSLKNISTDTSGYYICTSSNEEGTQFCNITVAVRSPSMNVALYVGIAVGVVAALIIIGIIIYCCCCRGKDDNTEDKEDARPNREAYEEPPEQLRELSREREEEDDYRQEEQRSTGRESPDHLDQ
Sequence of A33 in human colon and human colon adenocarcinoma tissue sections (Q99795 22-319): as above

B1: IgG2a(K), murine anti-A33 antibody K in murine IgG2a format (antibody, V domains shown)
VH: EVKLVESGGGLVKPGGSLKLSCAASGFAFSTYDMSWVRQTPEKRLEWVATISSGGSYTYYLDSVKGRFTISRDSARNTLYLQMSSLRSEDTALYYCAPTTVVPFAYWGQGTLVTVSA
VL: DIVMTQSQKFMSTSVGDRVSITCKASQNVRTVVAWYQQKPGQSPKTLIYLASNRHTGVPDRFTGSGSGTDFTLTISNVQSEDLADYFCLQHWSYPLTFGSGTKLEVK
As to B1, the binding result in experiment [1] and in experiment [2] was “binds” in each case.

B2: FITC-labeled IgG2a(K) (antibody, V domains shown)
VH: EVKLVESGGGLVKPGGSLKLSCAASGFAFSTYDMSWVRQTPEKRLEWVATISSGGSYTYYLDSVKGRFTISRDSARNTLYLQMSSLRSEDTALYYCAPTTVVPFAYWGQGTLVTVSA
VL: DIVMTQSQKFMSTSVGDRVSITCKASQNVRTVVAWYQQKPGQSPKTLIYLASNRHTGVPDRFTGSGSGTDFTLTISNVQSEDLADYFCLQHWSYPLTFGSGTKLEVK
For the molecule B2, the binding result in experiment [3] is recorded as “binds”.

B3: FITC-labeled IgG2a(MG) (antibody, V domains shown)
VH: QVQLQQSGPELVKPGASVKISCKASGYTFSGSWMNWVKQRPGQGLEWIGRIYPGDGETNYNGKFKDKATLTADKSSTTAYMELSSLTSVDSAVYFCARIYGNNVYFDVWGAGTTVTVSS
VL: QIVLTQSPAIMSASPGERVTMTCSARSSISFMYWYQQKPGSSPRLLIYDTSNLASGVPVRFSGSGSGTSYSLTISRMEAEDAATYYCQQWSSYPLTFGSGTKLELK
B3: the binding result in experiment [3] is given as “binds”.
